Where a chain is given by its changes, count along the chain named. Numbers in names are those of the source.
Experiments:
[1] = target: T1, PfCSP central repeat peptide NANP_(20aa) (Plasmodium falciparum (repeat peptide, …)); assay: SPR
T1 chain: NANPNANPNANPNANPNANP

[2] = target: T2, PfCSP N-junction peptide NPDP_(20aa) (Plasmodium falciparum (matches 3D7 …)); assay: SPR
T2 chain: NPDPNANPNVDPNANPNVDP

B1: mAb 0786 wt (antibody, V domains shown)
VH: EVQLVESGGGLVQPGRSLRLSCTTSGFTFGDFAMSWVRQAPGKGLEWVGFIRSKANGGSTEYAASVKGRFTISRDDSKSIAYLQMDSLKTEDTAVYYCCRVWIQLWPLDYWGQGTLVTVSS
VL: EIVLTQSPGTLSLSPGERATLSCRASQSIGSSYLAWYQLKPGQAPRLLIYGASSRATGIPDRFSGSGSGTDFTLIISRLEPEDFAVYFCQQYGRSPWTFGQGTKVEIK
binding result [1]: binds
binding result [2]: binds

B2: mAb 0786 with H.A63P (antibody, V domains shown)
VH: B1 VH with A63P
VL: B1 VL
binding result [1]: binds
binding result [2]: binds

B3: mAb 0786 with Arg introduced at H.59 (antibody, V domains shown)
VH: B1 VH with S59R
VL: B1 VL
binding result [1]: binds
binding result [2]: binds

B4: mAb 0786 with H.N56 reverted to the GL Tyr (antibody, V domains shown)
VH: B1 VH with N56Y
VL: B1 VL
binding result [1]: binds
binding result [2]: binds
